Experimental data taken from patent US20210139548A1 (published 2021).
*1 amine or outer side, *2 acyl side, *3 side chain or, on linkers, in order; H or OH if unused. Side-chain parts run from the residue outwards. The star is where a group is joined. C18 diacid = O=C(O)CCCCCCCCCCCCCCCCC(=O)*; γGlu = O=C(O)[C@H](CCC(=O)[*:2])N[*:1]; Isovaleryl = CC(C)CC(=O)*; AEEA = NCCOCCOCC(=O)O

Target: T1, human neuropeptide Y2 receptor (human, UniProt P49146 1-381)
T1 construct: whole, on cells; also called hNPY2 receptor; hNPY2-R
T1 sequence (looked up): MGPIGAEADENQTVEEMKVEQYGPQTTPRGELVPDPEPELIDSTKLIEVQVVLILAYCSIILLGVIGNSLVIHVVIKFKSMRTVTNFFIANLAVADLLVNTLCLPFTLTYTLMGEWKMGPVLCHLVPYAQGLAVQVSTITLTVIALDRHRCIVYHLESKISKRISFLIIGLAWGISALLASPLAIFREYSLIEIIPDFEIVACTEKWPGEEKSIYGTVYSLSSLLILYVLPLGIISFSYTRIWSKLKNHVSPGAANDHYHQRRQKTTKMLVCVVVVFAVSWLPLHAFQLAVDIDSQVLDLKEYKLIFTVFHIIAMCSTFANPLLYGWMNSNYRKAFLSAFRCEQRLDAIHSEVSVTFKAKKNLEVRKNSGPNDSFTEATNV
Experiment: radioligand competition (125I-PYY(1-36)), hNPY2R membranes
Summary of the method: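 Commercial human Y2 receptor membranes (0.5 μg protein/well) were incubated with peptide for 2 h at room temperature in 50 mM HEPES, 5 mM MgCl₂, 1 mM CaCl₂, pH 7.4, with 0.2% ovalbumin. Bound radioligand was separated on PEI-soaked GF/C filters and counted by scintillation, and IC₅₀ came from nonlinear sigmoidal regression.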

B1: Compound 65 (peptide)
peptide: Isovaleryl-APEK([AEEA-AEEA-γGlu-C18 diacid])PEEDASPEELQRYYVEIRHYYNWLTRQRY-NH2
SMILES: CC[C@H](C)[C@H](NC(=O)[C@H](CCC(=O)O)NC(=O)[C@@H](NC(=O)[C@H](Cc1ccc(O)cc1)NC(=O)[C@H](Cc1ccc(O)cc1)NC(=O)[C@H](CCCNC(=N)N)NC(=O)[C@H](CCC(N)=O)NC(=O)[C@H](CC(C)C)NC(=O)[C@H](CCC(=O)O)NC(=O)[C@H](CCC(=O)O)NC(=O)[C@@H]1CCCN1C(=O)[C@H](CO)NC(=O)[C@H](C)NC(=O)[C@H](CC(=O)O)NC(=O)[C@H](CCC(=O)O)NC(=O)[C@H](CCC(=O)O)NC(=O)[C@@H]1CCCN1C(=O)[C@H](CCCCNC(=O)COCCOCCNC(=O)COCCOCCNC(=O)CC[C@H](NC(=O)CCCCCCCCCCCCCCCCC(=O)O)C(=O)O)NC(=O)[C@H](CCC(=O)O)NC(=O)[C@@H]1CCCN1C(=O)[C@H](C)NC(=O)CC(C)C)C(C)C)C(=O)N[C@@H](CCCNC(=N)N)C(=O)N[C@@H](Cc1c[nH]cn1)C(=O)N[C@@H](Cc1ccc(O)cc1)C(=O)N[C@@H](Cc1ccc(O)cc1)C(=O)N[C@@H](CC(N)=O)C(=O)N[C@@H](Cc1c[nH]c2ccccc12)C(=O)N[C@@H](CC(C)C)C(=O)N[C@H](C(=O)N[C@@H](CCCNC(=N)N)C(=O)N[C@@H](CCC(N)=O)C(=O)N[C@@H](CCCNC(=N)N)C(=O)N[C@@H](Cc1ccc(O)cc1)C(N)=O)[C@@H](C)O
  Ki: 1.02 nM

B2: Compound 68 (peptide)
peptide: Isovaleryl-APEK([AEEA-AEEA-γGlu-C18 diacid])PEEEASPEELQAYYVSLRHYYNWLTRQRY-NH2
SMILES: CC(C)CC(=O)N[C@@H](C)C(=O)N1CCC[C@H]1C(=O)N[C@@H](CCC(=O)O)C(=O)N[C@@H](CCCCNC(=O)COCCOCCNC(=O)COCCOCCNC(=O)CC[C@H](NC(=O)CCCCCCCCCCCCCCCCC(=O)O)C(=O)O)C(=O)N1CCC[C@H]1C(=O)N[C@@H](CCC(=O)O)C(=O)N[C@@H](CCC(=O)O)C(=O)N[C@@H](CCC(=O)O)C(=O)N[C@@H](C)C(=O)N[C@@H](CO)C(=O)N1CCC[C@H]1C(=O)N[C@@H](CCC(=O)O)C(=O)N[C@@H](CCC(=O)O)C(=O)N[C@@H](CC(C)C)C(=O)N[C@@H](CCC(N)=O)C(=O)N[C@@H](C)C(=O)N[C@@H](Cc1ccc(O)cc1)C(=O)N[C@@H](Cc1ccc(O)cc1)C(=O)N[C@H](C(=O)N[C@@H](CO)C(=O)N[C@@H](CC(C)C)C(=O)N[C@@H](CCCNC(=N)N)C(=O)N[C@@H](Cc1c[nH]cn1)C(=O)N[C@@H](Cc1ccc(O)cc1)C(=O)N[C@@H](Cc1ccc(O)cc1)C(=O)N[C@@H](CC(N)=O)C(=O)N[C@@H](Cc1c[nH]c2ccccc12)C(=O)N[C@@H](CC(C)C)C(=O)N[C@H](C(=O)N[C@@H](CCCNC(=N)N)C(=O)N[C@@H](CCC(N)=O)C(=O)N[C@@H](CCCNC(=N)N)C(=O)N[C@@H](Cc1ccc(O)cc1)C(N)=O)[C@@H](C)O)C(C)C
  Ki: 8.47 nM

B3: Compound 67 (peptide)
peptide: Isovaleryl-APEK([AEEA-AEEA-γGlu-C18 diacid])PEEDSAPEELQRYYVSLRHYYNWLTRQRY-NH2
SMILES: CC(C)CC(=O)N[C@@H](C)C(=O)N1CCC[C@H]1C(=O)N[C@@H](CCC(=O)O)C(=O)N[C@@H](CCCCNC(=O)COCCOCCNC(=O)COCCOCCNC(=O)CC[C@H](NC(=O)CCCCCCCCCCCCCCCCC(=O)O)C(=O)O)C(=O)N1CCC[C@H]1C(=O)N[C@@H](CCC(=O)O)C(=O)N[C@@H](CCC(=O)O)C(=O)N[C@@H](CC(=O)O)C(=O)N[C@@H](CO)C(=O)N[C@@H](C)C(=O)N1CCC[C@H]1C(=O)N[C@@H](CCC(=O)O)C(=O)N[C@@H](CCC(=O)O)C(=O)N[C@@H](CC(C)C)C(=O)N[C@@H](CCC(N)=O)C(=O)N[C@@H](CCCNC(=N)N)C(=O)N[C@@H](Cc1ccc(O)cc1)C(=O)N[C@@H](Cc1ccc(O)cc1)C(=O)N[C@H](C(=O)N[C@@H](CO)C(=O)N[C@@H](CC(C)C)C(=O)N[C@@H](CCCNC(=N)N)C(=O)N[C@@H](Cc1c[nH]cn1)C(=O)N[C@@H](Cc1ccc(O)cc1)C(=O)N[C@@H](Cc1ccc(O)cc1)C(=O)N[C@@H](CC(N)=O)C(=O)N[C@@H](Cc1c[nH]c2ccccc12)C(=O)N[C@@H](CC(C)C)C(=O)N[C@H](C(=O)N[C@@H](CCCNC(=N)N)C(=O)N[C@@H](CCC(N)=O)C(=O)N[C@@H](CCCNC(=N)N)C(=O)N[C@@H](Cc1ccc(O)cc1)C(N)=O)[C@@H](C)O)C(C)C
  Ki: 4.37 nM

B4: Compound 69 (peptide)
peptide: Isovaleryl-APEK([AEEA-AEEA-γGlu-C18 diacid])PEEDSSAEELQRYYVSLRHYYNWLTRQRY-NH2
SMILES: CC(C)CC(=O)N[C@@H](C)C(=O)N1CCC[C@H]1C(=O)N[C@@H](CCC(=O)O)C(=O)N[C@@H](CCCCNC(=O)COCCOCCNC(=O)COCCOCCNC(=O)CC[C@H](NC(=O)CCCCCCCCCCCCCCCCC(=O)O)C(=O)O)C(=O)N1CCC[C@H]1C(=O)N[C@@H](CCC(=O)O)C(=O)N[C@@H](CCC(=O)O)C(=O)N[C@@H](CC(=O)O)C(=O)N[C@@H](CO)C(=O)N[C@@H](CO)C(=O)N[C@@H](C)C(=O)N[C@@H](CCC(=O)O)C(=O)N[C@@H](CCC(=O)O)C(=O)N[C@@H](CC(C)C)C(=O)N[C@@H](CCC(N)=O)C(=O)N[C@@H](CCCNC(=N)N)C(=O)N[C@@H](Cc1ccc(O)cc1)C(=O)N[C@@H](Cc1ccc(O)cc1)C(=O)N[C@H](C(=O)N[C@@H](CO)C(=O)N[C@@H](CC(C)C)C(=O)N[C@@H](CCCNC(=N)N)C(=O)N[C@@H](Cc1c[nH]cn1)C(=O)N[C@@H](Cc1ccc(O)cc1)C(=O)N[C@@H](Cc1ccc(O)cc1)C(=O)N[C@@H](CC(N)=O)C(=O)N[C@@H](Cc1c[nH]c2ccccc12)C(=O)N[C@@H](CC(C)C)C(=O)N[C@H](C(=O)N[C@@H](CCCNC(=N)N)C(=O)N[C@@H](CCC(N)=O)C(=O)N[C@@H](CCCNC(=N)N)C(=O)N[C@@H](Cc1ccc(O)cc1)C(N)=O)[C@@H](C)O)C(C)C
  Ki: 5.74 nM

B5: Compound 70 (peptide)
peptide: Isovaleryl-APEK([AEEA-AEEA-γGlu-C18 diacid])PEEAASPEELQRYEVSLRHYYNWLTRQRY-NH2
SMILES: CC(C)CC(=O)N[C@@H](C)C(=O)N1CCC[C@H]1C(=O)N[C@@H](CCC(=O)O)C(=O)N[C@@H](CCCCNC(=O)COCCOCCNC(=O)COCCOCCNC(=O)CC[C@H](NC(=O)CCCCCCCCCCCCCCCCC(=O)O)C(=O)O)C(=O)N1CCC[C@H]1C(=O)N[C@@H](CCC(=O)O)C(=O)N[C@@H](CCC(=O)O)C(=O)N[C@@H](C)C(=O)N[C@@H](C)C(=O)N[C@@H](CO)C(=O)N1CCC[C@H]1C(=O)N[C@@H](CCC(=O)O)C(=O)N[C@@H](CCC(=O)O)C(=O)N[C@@H](CC(C)C)C(=O)N[C@@H](CCC(N)=O)C(=O)N[C@@H](CCCNC(=N)N)C(=O)N[C@@H](Cc1ccc(O)cc1)C(=O)N[C@@H](CCC(=O)O)C(=O)N[C@H](C(=O)N[C@@H](CO)C(=O)N[C@@H](CC(C)C)C(=O)N[C@@H](CCCNC(=N)N)C(=O)N[C@@H](Cc1c[nH]cn1)C(=O)N[C@@H](Cc1ccc(O)cc1)C(=O)N[C@@H](Cc1ccc(O)cc1)C(=O)N[C@@H](CC(N)=O)C(=O)N[C@@H](Cc1c[nH]c2ccccc12)C(=O)N[C@@H](CC(C)C)C(=O)N[C@H](C(=O)N[C@@H](CCCNC(=N)N)C(=O)N[C@@H](CCC(N)=O)C(=O)N[C@@H](CCCNC(=N)N)C(=O)N[C@@H](Cc1ccc(O)cc1)C(N)=O)[C@@H](C)O)C(C)C
  Ki: 4.86 nM
